Assay results published in patent CN114380913A (SHANGHAI LUBRIGHT MEDICINE TECH CO LTD, dated 2022).

How the values were obtained:
[1] = target: T1, 生物素标记的人PD-L1(acro，货号:PD1-H82E5) (human, UniProt Q9NZQ7 19-238, biotin label (site not stated)); assay: BLI (Octet RED96e), avidity format: Biotin hPD-L1 on SA sensor, antibody in solution
T1 construct: Bought biotinylated protein; also called Biotin hPD-L1; BiotinhPD-L1

[2] = target: T2, 猴PD-L1-Fc(Acro，货号:PD1-C5253) (monkey (cynomolgus)); assay: BLI (Octet RED96e), avidity format: antibody on CH1 sensor, monkey PD-L1-Fc in solution
T2 construct: Bought Fc fusion; also called Cyno PD-L1; 食蟹猴PD-L1

[3] = target: T3, CHOK1-h PD-L1(GenScript M00543)细胞表面PD-L1 (human, UniProt Q9NZQ7 19-290); assay: FACS competition: blocks Biotin PD-1 mFc binding to CHOK1-hPD-L1 cells
T3 construct: whole, on cells; also called 细胞表面抗原PD-L1

[4] = target: T3, CHOK1-h PD-L1(GenScript M00543)细胞表面PD-L1; assay: FACS on CHOK1-hPD-L1 cells
[5] = target: T4, 生物素标记的鼠PD-L1(Sino，货号:50010-M08H-B) (mouse, UniProt Q9EP73 19-238, biotin label (site not stated)); assay: BLI (Octet RED96e), avidity format: Biotin mPD-L1 on SA sensor, antibody in solution
T4 construct: Bought biotinylated protein; also called Biotin mPD-L1
T4 sequence (Q9EP73 19-238 limits assumed, stated change not applied): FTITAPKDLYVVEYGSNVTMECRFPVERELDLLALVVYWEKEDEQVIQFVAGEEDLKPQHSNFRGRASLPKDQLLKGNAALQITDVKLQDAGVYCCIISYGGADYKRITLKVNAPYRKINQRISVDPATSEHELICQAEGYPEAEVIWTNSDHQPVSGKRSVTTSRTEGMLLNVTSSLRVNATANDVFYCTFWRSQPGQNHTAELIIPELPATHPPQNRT

[6] = target: T5, 人PD-L1 his(Acro，货号:PD1-H5229) (human, UniProt Q9NZQ7 19-238); assay: BLI (Octet RED96e), affinity format: antibody on AHC sensor, human PD-L1 his in solution
T5 construct: Bought protein; also called human PD-L1 his; not shown: His tag

Kd [1]: ~0.15 nM | Kd [2]: ~0.79 nM | IC50 [3]: 1.02 mg/L | EC50 [4]: 0.02 mg/L | Kd [5]: ~0.58 nM | Kd [6]: ~26 nM
B1: Ab1910T2 (antibody, human IgG1, kappa, N297A, V domains shown)
VH: EVQLVESGGGLVQPGGSLRLSCAASGFPFTNYAMSWVRQAPGKGLEWVSSISGSGAGTYYADSVKGRFTISRDNSKNTLYLQMNSLRAEDTAVYYCAKDLFPTIFGVVTTNYMDVWGKGTTVTVSS
VL: DIQMTQSPSSLSASVGDRVTITCRASQSISSYLNWYQQKPGKAPKLLIYSASSLQIGVPSRFSGSGSGTDFTLTISSLQPEDFATYYCQQSYSIPVTFGQGTKVEIKR
notes: Full human IgG1 (Fc N297A) / kappa, made in ExpiCHO; also called 本申请抗PD-L1抗体Ab1910T2; 所述抗PD-L1单克隆抗体
